These results are taken from patent publication US20260070987A1.

For this test, the target named is equine FcRn (large alpha subunit p51) / equine beta-2-microglobulin complex, biotinylated (equine) (UniProt P30441). As to the kind of experiment: SPR (Biacore), pH 6. On the technique in general: In SPR one partner is held on a chip, and binding of the other changes the refractive index at the surface.
UniProt P30441, sequence (P30441 21-118, one chain of several): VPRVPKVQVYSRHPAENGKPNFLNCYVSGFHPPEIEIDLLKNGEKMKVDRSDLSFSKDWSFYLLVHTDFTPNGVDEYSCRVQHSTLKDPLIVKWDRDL

B1: equine IgG1 T286W (antibody, part only; not given: Variable domains, not shown: another chain or arm of the molecule)
constant: ASTTAPKVFALAPGCGTTSDSTVALGCLVSGYFPEPVKVSWNSGSLTSGVHTFPSVLQSSGFYSLSSMVTVPASTWTSETYICNVVHAASNFKVDKRIEPIPDNHQKVCDMSKCPKCPAPELLGGPSVFIFPPNPKDTLMITRTPEVTCVVVDVSQENPDVKFNWYMDGVEVRWATTRPKEEQFNSTYRVVSVLRIQHQDWLSGKEFKCKVNNQALPQPIERTITKTKGRSQEPQVYVLAPHPDELSKSKVSVTCLVKDFYPPEINIEWQSNGQPELETKYSTTQAQQDSDGSYFLYSKLSVDRNRWQQGTTFTCGVMHEALHNHYTQKNVSKNPGK
B1: the Kd (as a rule, a measure of binding affinity in units of concentration) is 0.0184 µM.

B2: equine IgG4 Y436Q (antibody, part only; not given: variable domains, not shown: another chain or arm of the molecule)
constant: ASTTAPKVFPLASHSAATSGSTVALGCLVSSYFPEPVTVSWNSGALTSGVHTFPSVLQSSGLYSLSSMVTVPASSLKSQTYICNVAHPASSTKVDKKIVIKECNGGCPAECLQVGPSVFIFPPKPKDVLMISRTPTVTCVVVDVGHDFPDVQFNWYVDGVETHTATTEPKQEQFNSTYRVVSVLPIQHKDWLSGKEFKCKVNNKALPAPVERTISKPTGQPREPQVYVLAPHRDELSKNKVSVTCLVKDFYPTDIDIEWKSNGQPEPETKYSTTPAQLDSDGSYFLYSKLTVETNRWQQGTTFTCAVMHEALHNHQTEKSVSKSPGK
In the case of B2, the equilibrium dissociation constant (Kd) amounted to 0.0256 µM. The Kd values of the last two molecules are within 1.5-fold of each other.

B3: equine IgG4 T286E (antibody, part only; not given: variable domains, not shown: another chain or arm of the molecule)
constant: ASTTAPKVFPLASHSAATSGSTVALGCLVSSYFPEPVTVSWNSGALTSGVHTFPSVLQSSGLYSLSSMVTVPASSLKSQTYICNVAHPASSTKVDKKIVIKECNGGCPAECLQVGPSVFIFPPKPKDVLMISRTPTVTCVVVDVGHDFPDVQFNWYVDGVETHEATTEPKQEQFNSTYRVVSVLPIQHKDWLSGKEFKCKVNNKALPAPVERTISKPTGQPREPQVYVLAPHRDELSKNKVSVTCLVKDFYPTDIDIEWKSNGQPEPETKYSTTPAQLDSDGSYFLYSKLTVETNRWQQGTTFTCAVMHEALHNHYTEKSVSKSPGK
As to B3, the Kd worked out at 0.252 µM.

B4: equine IgG4 Y436R (antibody, part only; not given: variable domains, not shown: another chain or arm of the molecule)
constant: ASTTAPKVFPLASHSAATSGSTVALGCLVSSYFPEPVTVSWNSGALTSGVHTFPSVLQSSGLYSLSSMVTVPASSLKSQTYICNVAHPASSTKVDKKIVIKECNGGCPAECLQVGPSVFIFPPKPKDVLMISRTPTVTCVVVDVGHDFPDVQFNWYVDGVETHTATTEPKQEQFNSTYRVVSVLPIQHKDWLSGKEFKCKVNNKALPAPVERTISKPTGQPREPQVYVLAPHRDELSKNKVSVTCLVKDFYPTDIDIEWKSNGQPEPETKYSTTPAQLDSDGSYFLYSKLTVETNRWQQGTTFTCAVMHEALHNHRTEKSVSKSPGK
Molecule B4 yielded a Kd of 0.0483 µM.

B5: equine IgG4 Y436S (antibody, part only; not given: variable domains, not shown: another chain or arm of the molecule)
constant: ASTTAPKVFPLASHSAATSGSTVALGCLVSSYFPEPVTVSWNSGALTSGVHTFPSVLQSSGLYSLSSMVTVPASSLKSQTYICNVAHPASSTKVDKKIVIKECNGGCPAECLQVGPSVFIFPPKPKDVLMISRTPTVTCVVVDVGHDFPDVQFNWYVDGVETHTATTEPKQEQFNSTYRVVSVLPIQHKDWLSGKEFKCKVNNKALPAPVERTISKPTGQPREPQVYVLAPHRDELSKNKVSVTCLVKDFYPTDIDIEWKSNGQPEPETKYSTTPAQLDSDGSYFLYSKLTVETNRWQQGTTFTCAVMHEALHNHSTEKSVSKSPGK
Regarding B5, the Kd stood at 0.0309 µM.

B6: equine IgG4 T286D (antibody, part only; not given: variable domains, not shown: another chain or arm of the molecule)
constant: ASTTAPKVFPLASHSAATSGSTVALGCLVSSYFPEPVTVSWNSGALTSGVHTFPSVLQSSGLYSLSSMVTVPASSLKSQTYICNVAHPASSTKVDKKIVIKECNGGCPAECLQVGPSVFIFPPKPKDVLMISRTPTVTCVVVDVGHDFPDVQFNWYVDGVETHDATTEPKQEQFNSTYRVVSVLPIQHKDWLSGKEFKCKVNNKALPAPVERTISKPTGQPREPQVYVLAPHRDELSKNKVSVTCLVKDFYPTDIDIEWKSNGQPEPETKYSTTPAQLDSDGSYFLYSKLTVETNRWQQGTTFTCAVMHEALHNHYTEKSVSKSPGK
In the case of B6, the Kd was determined as 0.492 µM.

B7: equine IgG4 Y436V (antibody, part only; not given: variable domains, not shown: another chain or arm of the molecule)
constant: ASTTAPKVFPLASHSAATSGSTVALGCLVSSYFPEPVTVSWNSGALTSGVHTFPSVLQSSGLYSLSSMVTVPASSLKSQTYICNVAHPASSTKVDKKIVIKECNGGCPAECLQVGPSVFIFPPKPKDVLMISRTPTVTCVVVDVGHDFPDVQFNWYVDGVETHTATTEPKQEQFNSTYRVVSVLPIQHKDWLSGKEFKCKVNNKALPAPVERTISKPTGQPREPQVYVLAPHRDELSKNKVSVTCLVKDFYPTDIDIEWKSNGQPEPETKYSTTPAQLDSDGSYFLYSKLTVETNRWQQGTTFTCAVMHEALHNHVTEKSVSKSPGK
For B7, the Kd stood at 0.0132 µM.

B8: equine IgG4 Y436W (antibody, part only; not given: variable domains, not shown: another chain or arm of the molecule)
constant: ASTTAPKVFPLASHSAATSGSTVALGCLVSSYFPEPVTVSWNSGALTSGVHTFPSVLQSSGLYSLSSMVTVPASSLKSQTYICNVAHPASSTKVDKKIVIKECNGGCPAECLQVGPSVFIFPPKPKDVLMISRTPTVTCVVVDVGHDFPDVQFNWYVDGVETHTATTEPKQEQFNSTYRVVSVLPIQHKDWLSGKEFKCKVNNKALPAPVERTISKPTGQPREPQVYVLAPHRDELSKNKVSVTCLVKDFYPTDIDIEWKSNGQPEPETKYSTTPAQLDSDGSYFLYSKLTVETNRWQQGTTFTCAVMHEALHNHWTEKSVSKSPGK
As for B8, the Kd worked out at 0.0202 µM.

B9: equine IgG4 T286A (antibody, part only; not given: variable domains, not shown: another chain or arm of the molecule)
constant: ASTTAPKVFPLASHSAATSGSTVALGCLVSSYFPEPVTVSWNSGALTSGVHTFPSVLQSSGLYSLSSMVTVPASSLKSQTYICNVAHPASSTKVDKKIVIKECNGGCPAECLQVGPSVFIFPPKPKDVLMISRTPTVTCVVVDVGHDFPDVQFNWYVDGVETHAATTEPKQEQFNSTYRVVSVLPIQHKDWLSGKEFKCKVNNKALPAPVERTISKPTGQPREPQVYVLAPHRDELSKNKVSVTCLVKDFYPTDIDIEWKSNGQPEPETKYSTTPAQLDSDGSYFLYSKLTVETNRWQQGTTFTCAVMHEALHNHYTEKSVSKSPGK
Molecule B9 registered a Kd of 0.0487 µM.

B10: equine IgG4 T286C (antibody, part only; not given: variable domains, not shown: another chain or arm of the molecule)
constant: ASTTAPKVFPLASHSAATSGSTVALGCLVSSYFPEPVTVSWNSGALTSGVHTFPSVLQSSGLYSLSSMVTVPASSLKSQTYICNVAHPASSTKVDKKIVIKECNGGCPAECLQVGPSVFIFPPKPKDVLMISRTPTVTCVVVDVGHDFPDVQFNWYVDGVETHCATTEPKQEQFNSTYRVVSVLPIQHKDWLSGKEFKCKVNNKALPAPVERTISKPTGQPREPQVYVLAPHRDELSKNKVSVTCLVKDFYPTDIDIEWKSNGQPEPETKYSTTPAQLDSDGSYFLYSKLTVETNRWQQGTTFTCAVMHEALHNHYTEKSVSKSPGK
In turn, B10 displayed a dissociation constant (Kd) of 0.0344 µM. This Kd and that of the molecule before are within 1.5-fold of each other.

B11: equine IgG4 Y436T (antibody, part only; not given: variable domains, not shown: another chain or arm of the molecule)
constant: ASTTAPKVFPLASHSAATSGSTVALGCLVSSYFPEPVTVSWNSGALTSGVHTFPSVLQSSGLYSLSSMVTVPASSLKSQTYICNVAHPASSTKVDKKIVIKECNGGCPAECLQVGPSVFIFPPKPKDVLMISRTPTVTCVVVDVGHDFPDVQFNWYVDGVETHTATTEPKQEQFNSTYRVVSVLPIQHKDWLSGKEFKCKVNNKALPAPVERTISKPTGQPREPQVYVLAPHRDELSKNKVSVTCLVKDFYPTDIDIEWKSNGQPEPETKYSTTPAQLDSDGSYFLYSKLTVETNRWQQGTTFTCAVMHEALHNHTTEKSVSKSPGK
B11 yielded a Kd of 0.0272 µM.
